Source: patent US20090186036A1 (Biogen, published 2009)

B1: 7.7G5 (antibody, V domains shown)
VH: EVQLQQSGPELVKPGASVKISCKASGYSFTGYFMNWVMQSHGKSLEWIGRIKPYNGDNFYNQKFMGKATLTVDKSSSTVHMELRSLASEDSAVYYCARDRYGTYGMDYWGQGTSVTVSS
VL: QIVLTQSPAIMSASPGEKVTMTCSASSSVSYMHWYQQKSGTSPKRWIYDTSKLASGVPTRFSGSGSGTSYSLTINSMEAEDAATYYCQQWSSHPPTFGAGTKLELK
notes: ATCC PTA-3899
B2: soluble recombinant human αvβ6 (receptor)
chain 1: FNLDVDSPAEYSGPEGSYFGFAVDFFVPSASSRMFLLVGAPKANTTQPGIVEGGQVLKCDWSSTRRCQPIEFDATGNRDYAKDDPLEFKSHQWFGASVRSKQDKILACAPLYHWRTEMKQEREPVGTCFLQDGTKTVEYAPCRSQDIDADGQGFCQGGFSIDFTKADRVLLGGPGSFYWQGQLISDQVAEIVSKYDPNVYSIKYNNQLATRTAQAIFDDSYLGYSVAVGDFNGDGIDDFVSGVPRAARTLGMVYIYDGKNMSSLYNFTGEQMAAYFGFSVAATDINGDDYADVFIGAPLFMDRGSDGKLQEVGQVSVSLQRASGDFQTTKLNGFEVFARFGSAIAPLGDLDQDGFNDIAIAAPYGGEDKKGIVYIFNGRSTGLNAVPSQILEGQWAARSMPPSFGYSMKGATDIDKNGYPDLIVGAFGVDRAILYRARPVITVNAGLEVYPSILNQDNKTCSLPGTALKVSCFNVRFCLKADGKGVLPRKLNFQVELLLDKLKQKGAIRRALFLYSRSPSHSKNMTISRGGLMQCEELIAYLRDESEFRDKLTPITIFMEYRLDYRTAADTTGLQPILNQFTPANISRQAHILLDCGEDNVCKPKLEVSVDSDQKKIYIGDDNPLTLIVKAQNQGEGAYEAELIVSIPLQADFIGVVRNNEALARLSCAFKTENQTRQVVCDLGNPMKAGTQLLAGLRFSVHQQSEMDTSVKFDLQIQSSNLFDKVSPVVSHKVDLAVLAAVEIRGVSSPDHVFLPIPNWEHKENPETEEDVGPVVQHIYELRNNGPSSFSKAMLHLQWPYKYNNNTLLYILHYDIDGPMNCTSDMEINPLRIKISSLQTTEKNDTVAGQGERDHLITKRDLALSEGDIHTLGCGVAQCLKIVCQVGRLDRGKSAILYVKSLLWTETFMNKENQNHSYSLKSSASFNVIEFPYKNLPIEDITNSTLVTTNVTWGIQPAPMPV
chain 2: GCALGGAETCEDCLLIGPQCAWCAQENFTHPSGVGERCDTPANLLAKGCQLNFIENPVSQVEILKNKPLSVGRQKNSSDIVQIAPQSLILKLRPGGAQTLQVHVRQTEDYPVDLYYLMDLSASMDDDLNTIKELGSRLSKEMSKLTSNFRLGFGSFVEKPVSPFVKTTPEEIANPCSSIPYFCLPTFGFKHILPLTNDAERFNEIVKNQKISANIDTPEGGFDAIMQAAVCKEKIGWRNDSLHLLVFVSDADSHFGMDSKLAGIVIPNDGLCHLDSKNEYSMSTVLEYPTIGQLIDKLVQNNVLLIFAVTQEQVHLYENYAKLIPGATVGLLQKDSGNILQLIISAYEELRSEVELEVLGDTEGLNLSFTAICNNGTLFQHQKKCSHMKVGDTASFSVTVNIPHCERRSRHIIIKPVGLGDALELLVSPECNCDCQKEVEVNSSKCHHGNGSFQCGVCACHPGHMGPRCECGEDMLSTDSCKEAPDHPSCSGRGDCYCGQCICHLSPYGNIYGPYCQCDNFSCVRHKGLLCGGNGDCDCGECVCRSGWTGEYCNCTTSTDSCVSEDGVLCSGRGDCVCGKCVCTNPGASGPTCERCPTCGDPCNSKRSCIECHLSAAGQAREECVDKCKLAGATISEEEDFSKDGSVSCSLQGENECLITFLITTDNEGKTIIHSINEKDCPKPPNIP
notes: extracellular domain; also called hsαvβ6; soluble human truncated αvβ6
B3: 7.1G10 (antibody, V domains shown)
VH: QVQLQQSGPELVKPGASVRISCKASGYTFTSYYIHWVKQRPGQGLEWIGWLYPGKINTRYNEKFKGKATLIADKSSSTAYMQLSSLTSEDSAVYFCARHVLNGNFDYWGQGTTLTVSS
VL: DIQMTQSPSSLSASLGERVSLTCRASQEISGYLSWLQQKPDGSIKRLIYAASTLDSGVPKRFSGSRSGADYSLTISSLESEDFADYYCLQYATYPYTFGGGTKLEIK
notes: ATCC PTA-3898

How the values were obtained:
[1] = biological target: B2; experiment: ELISA, coated hsαvβ6
Procedure: A 96-well microtiter plate (Corning COSTAR EASY-WASH) was coated with 50 μl/well of 5 μg/ml hsαᵥβ₆ at 4° C. overnight. The plate was washed with wash buffer (0.1% TWEEN-20 in PBS) four times in an automated plate washer. Then 180 μl/well of 3% BSA in TBS was added and incubated for 1 hr at 25° C. to block nonspecific binding. The plate was washed as above, and dilutions of either hybridoma supernatant (for screening assays) or purified antibody (for characterization) in TBS containing 1 mg/ml BSA, 1 mM CaCl₂, and 1 mM MgCl₂ were added (50 μl/well). The plate was incubated for 1 hr at 25° C., washed, and then incubated for 1 hr with 50 μl/well of […] goat anti-mouse IgG+A+M antibody (Cappel). Bound antibody was detected using 3,3′,5,5′-tetramethylbenzidine (TMB). Binding was indicated by the absorbency measured at 450 nm.

[2] = biological target: B2; experiment: biotin-hsαvβ6 to coated LAP, blocking
Procedure: 96-well microtiter plates (Corning COSTAR EASY-WASH) were coated with 0.3 μg/ml recombinant human LAP (R&D Systems, Cat. # 246-LP) diluted in PBS (50 μl/well) at 4° C. overnight. After the coating solution was removed, the plates were blocked with 180 μl/well of 3% BSA/TBS at 25° C. for 1 hr. […] After washing the LAP-coated plate with wash buffer (0.1% TWEEN-20 in PBS) 4 times in an automated plate washer, 100 μl of the antibody-αᵥβ₆ mixture was transferred to the plate, and incubated for 1 hr at 25° C. The plate was washed as above and incubated with 50 μl/well of a 1:1000 dilution of extravidin-horseradish peroxidase conjugate (Sigma) in TBS (1 mg/ml BSA) for 1 hr at 25° C. Bound protein was detected using the TMB substrate.
The purified antibodies were next evaluated for their ability to inhibit the αᵥβ₆-LAP interaction.

[3] = biological target: αvβ6 on β6-transfected SW480 cells (UniProt P06756 31-1048; P18564 22-788); experiment: cell-based or functional assay
[4] = biological target: T1, αvβ6 on β6-transfected FDC-P1 cells (murine, UniProt P43406 31-1044; Q9Z0T9 22-787); experiment: β6-FDC-P1 cells to coated LAP, blocking
T1 construct: whole, on cells; αv is that of the murine host cell line; also called β6-FDC-P1 cells; β6-transfected murine cells
T1 sequence (P43406 31-1044, chain 1 of 2): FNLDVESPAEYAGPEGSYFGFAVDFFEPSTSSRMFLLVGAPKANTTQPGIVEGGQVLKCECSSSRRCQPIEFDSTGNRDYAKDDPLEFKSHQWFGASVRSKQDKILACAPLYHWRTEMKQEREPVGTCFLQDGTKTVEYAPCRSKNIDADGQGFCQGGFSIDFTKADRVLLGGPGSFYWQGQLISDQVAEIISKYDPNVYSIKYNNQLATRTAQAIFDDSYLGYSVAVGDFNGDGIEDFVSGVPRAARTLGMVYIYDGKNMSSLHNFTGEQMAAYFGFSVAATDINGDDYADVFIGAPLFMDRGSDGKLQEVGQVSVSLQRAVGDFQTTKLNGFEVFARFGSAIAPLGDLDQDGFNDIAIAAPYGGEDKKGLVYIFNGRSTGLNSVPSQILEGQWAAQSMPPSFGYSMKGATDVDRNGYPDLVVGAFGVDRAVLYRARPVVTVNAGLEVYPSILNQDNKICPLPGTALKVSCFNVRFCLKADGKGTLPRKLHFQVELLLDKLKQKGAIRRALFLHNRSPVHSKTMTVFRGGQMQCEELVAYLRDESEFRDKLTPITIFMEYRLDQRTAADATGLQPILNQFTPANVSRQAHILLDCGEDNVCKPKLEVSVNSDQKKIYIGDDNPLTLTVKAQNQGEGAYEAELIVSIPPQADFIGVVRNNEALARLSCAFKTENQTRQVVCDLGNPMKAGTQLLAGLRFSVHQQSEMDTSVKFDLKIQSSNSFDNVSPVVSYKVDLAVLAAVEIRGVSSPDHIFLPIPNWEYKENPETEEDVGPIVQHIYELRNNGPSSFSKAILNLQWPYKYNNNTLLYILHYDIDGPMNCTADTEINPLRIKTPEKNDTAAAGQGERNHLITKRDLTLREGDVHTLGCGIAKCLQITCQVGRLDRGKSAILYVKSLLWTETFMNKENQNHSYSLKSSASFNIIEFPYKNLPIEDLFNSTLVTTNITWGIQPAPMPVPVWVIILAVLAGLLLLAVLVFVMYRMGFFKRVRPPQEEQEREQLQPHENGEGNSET
T1 sequence (Q9Z0T9 22-787, chain 2 of 2): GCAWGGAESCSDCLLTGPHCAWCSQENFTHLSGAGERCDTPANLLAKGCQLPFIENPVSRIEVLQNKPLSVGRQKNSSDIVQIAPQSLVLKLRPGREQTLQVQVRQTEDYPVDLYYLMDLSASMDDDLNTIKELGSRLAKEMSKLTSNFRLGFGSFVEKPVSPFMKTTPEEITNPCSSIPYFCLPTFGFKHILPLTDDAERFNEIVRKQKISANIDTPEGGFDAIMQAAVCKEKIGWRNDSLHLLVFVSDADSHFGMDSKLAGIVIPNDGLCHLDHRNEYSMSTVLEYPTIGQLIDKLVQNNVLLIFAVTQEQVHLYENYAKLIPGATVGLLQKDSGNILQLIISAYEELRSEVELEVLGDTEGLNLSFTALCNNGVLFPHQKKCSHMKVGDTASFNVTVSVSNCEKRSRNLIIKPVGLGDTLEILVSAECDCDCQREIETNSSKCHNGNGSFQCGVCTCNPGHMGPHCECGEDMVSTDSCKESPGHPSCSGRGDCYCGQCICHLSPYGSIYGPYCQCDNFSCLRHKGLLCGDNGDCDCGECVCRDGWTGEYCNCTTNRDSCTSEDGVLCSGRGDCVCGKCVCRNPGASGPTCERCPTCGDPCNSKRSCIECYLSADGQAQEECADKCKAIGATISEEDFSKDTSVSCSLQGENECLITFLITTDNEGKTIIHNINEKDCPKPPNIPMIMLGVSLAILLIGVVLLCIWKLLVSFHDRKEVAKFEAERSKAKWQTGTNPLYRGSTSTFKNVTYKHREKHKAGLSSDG
Procedure: A 96-well microtiter plate was coated with 50 μl/well of 0.5 μg/ml recombinant human LAP (R&D Systems) diluted in 50 mM sodium bicarbonate, pH 9.2 at 4° C. overnight. The plate was washed twice with PBS (100 μl/well) and blocked with 1% BSA in PBS (100 μl/well) for 1 hr at 25° C. The plate was washed twice with 100 μl/well of assay buffer (TBS complete plus 1 mM CaCl₂ and 1 mM MgCl₂). Next, to the individual wells of the plate were added 25 μl of a hybridoma supernatant (or a purified antibody) and 25 μl of β₆-FDC-P1 cells (5×10⁶ cells/ml, labeled with Calcein AM as described above). The plate was incubated at 25° C. for 1 hr, and then washed 4-6 times with the assay buffer (100 μl/well). The fluorescence emitted from cells captured on the plate was recorded. Percentage binding was determined by comparing the fluorescence signal prior to the final wash step (i.e., total cells added) to that after washing (i.e., bound cells).

6.3G9 = biological target: T2, 6.3G9; experiment: KinExA: soluble αvβ6 titrated against 1e-10 M antibody, free antibody caught on integrin-coated beads
T2 construct: ATCC PTA-3649; also called biotinylated 6.3G9
Procedure: A series of dilutions of the soluble integrin (1×10⁻⁸ M to 2.4×10⁻¹² M) were incubated with 1×10⁻¹⁰ M of the antibody for 3 h. These samples were then passed through polymethylmethacrylate beads coated with the integrin using a KinExA instrument (Sapidyne Instruments, Inc., Boise, Id.). In the case of 6.8G6, 11 mM CaCl₂ and […] MgCl₂ were included in the incubation and assay buffers. The amounts of bound and free antibody were determined using a Cy5-labeled anti-mouse secondary antibody. Quadratic curve fitting was performed using the KinExA software to attain a dissociation constant (Kd) for each interaction. […] Thus, both of these antibodies had very high affinities for αᵥβ₆.

Row | Binder | EC50 [1] | IC50 [2] | PAI-1 luciferase IC50 [3] | IC50 [4] | IC50 (read off the curve) (6.3G9)
1 | B1 | 0.013 µg/mL | 0.155 µg/mL | 0.7 µg/mL | 0.051 µg/mL | 
2 | B2 |  |  |  |  | ~0.05 nM
3 | B3 | 0.0042 µg/mL | 0.113 µg/mL | 0.25 µg/mL | 0.03 µg/mL | 
